assay: yeast display, Sf9 membrane polyspecificity reagent, FACS + sequencing; frameworks hold sequencing errors
How it was run: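 A nanobody's polyreactivity label depends on the gate it was sorted from. Yeast display cells were stained with 10% biotinylated, detergent-solubilized Sf9 membrane reagent for 1 hour at 4 °C, enriched on streptavidin microbeads and sorted by FACS. The low and high (top ~1%) gates were set on anti-HA fluorescence for expression and streptavidin fluorescence for reagent binding.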

| Sequence | polyreactivity (PSR sort gate) |
| --- | --- |
| QVQLVESGGGLVQAGVSLRLSCAASGLTFKWNAMGWYRHAPGKEREFVAAITKRAGSTYYADSVKGRFTISRDNAKNTVYLQMNSLKPEDTAVYYCAADDGYFYARYDYWGHGTQVTVSS | low polyreactivity |
| QVQLVESGGGLVQAGVSLRLSCAASGLTFSKYAMGWYREAPGNERDLVAAITRGDRTYYADSVKGRFTISRDNAKNTVYLHMNSLKPADTAVYYCAARQYYWGQGTQVTVSS | high polyreactivity |
| QVQLVESGGGLVQAGVSLRLSCAASGRIFGENAMGWYRQAPGEEREFVAVISISDASTYYADSVKGRFTISRDNAKNTVYFQMNSLKPEDTAVYYCAADLTDFLYVASDYCGQGTQVTVSS | low polyreactivity |
| QVQLVESGGGLVQAGVSLRLSCAASGRIFYAYAMGWYRKAPGKERELVAAISSSGRTYYADSVKGRLTISRDNAKNTVYLQMNSLKPEDTAVYYCAVDWSRQAHKFNYWGQGTQVTVSS | high polyreactivity |
| QVQLVESGGGLVQAGVSLRLSCAASGRTFGYNAMGWYRQAPGKERVVVAAITIGGSTNYADSVKGRFTISRDNAKNTVYLQMNSLKPEDTAVYYCAAYDTLLYWVEFYYWGQGTQVTVSS | low polyreactivity |
| QVQLVESGGGLVQAGVSLRLSCAASGRTFGYYTMGWSRQAPGKERELVAGISSAGSTNYADSVKGRFTISRDNAKNTVYFQMNSLKPADTAVYDCAARTYKVIQNNSWETYYYWGQGTQVTVSS | high polyreactivity |
| QVQLVESGGGLVQAGVSLRLSCAASGRTFRSNAMGWYRQSPGKERELVAAITASGGNTYYADSVKGRFTISRDNAKNTVYLQMNSLKPEDTAVYYCAAVSRYNYGTNPYYYWGQGTQVTVSS | high polyreactivity |
| QVQLVESGGGLVQAGVSLRLSCAASGRTFTSYPMGLYRQAPGKERELVAAISSRGGSTSYADSVKGRLTISRDNANNTVYLQMNSLKEEDTAVYYCARRIRQQRFGGNYWGQGTQVTVSS | high polyreactivity |
| QVQLVESGGGLVQAGVSLRLSCAASGRTFVHYTMGWSRQSPGKERELVATISTSGGSTSYADSVKGRFTISRDNAKNTVYLQMNSLKPEDTAVYYCAARWYFPDRVKYDYWGQGTQVSVSS | low polyreactivity |
| QVQLVESGGGLVQAGVSLRLSCAASGSTFSVNAMGWYRQAPGKERELVAAITYSGGSTYYADSVKGRFTISRDNAKNTVYLQMNSLKPEDTAVYYCAAEGGSALDDDYWGQGTQVTVSS | high polyreactivity |
| QVQLVESGGGLVQAGVSLRLSCAASGSTFTSYAMGWYRQAPGKERELVAAINDSAGSTYYADSVKGRFTISRDNAKNTAYLQKNSLKPDDTAVYYCAADGYNRQYVTYYYWGQGTQVTVSS | low polyreactivity |
| QVQLVESGGGLVQAGVSLRLSCAASGSTFTYYAMGWYRQAPGKERELVAAITNSGGSTYYAVSVKGRFTISRDNAKNTVYLQMNSLKPEDTAVYYCAATRVDSDDRTRFYYWGQGTQVTVSS | high polyreactivity |
| QVQLVESGGGLVQAGVSLRLSCAASGSTFVGYAMGWYRQAPGKERELVAAISYSGGSTYYADSVKGRFTISRDNAKNTVYLQMHSLKPEDTAVYYCAAEWSRHYYYGPRYDYWGQGSQVTVSS | low polyreactivity |
| QVQLVESGGGLVQAGVSLRLSCAASGSTLVYYAMGWYRQAPGKERELVAAITRSGDNTYYADSVKGRFTISRDNAKNTVYLQMNSLKPEDTAVYYCAVKKRVYSGDYWGQGTQVTVSS | high polyreactivity |
| QVQLVESGGGLVQAGVSLRLSCAASGSTYNAMGWYRQAPGKEREFVAAITSSGGSTYYADSVKGRFTISRDNAKNTVYLHMNSLNPEDTAVYYCASSYWTAWYQLDYWGQGTQVTVSS | high polyreactivity |
| QVQLVESGGGLVQAGVSLRLSCASSGSIFPEYVMAWYRQAPGKERELVAAISWSGGSTYYADSVKGRITISRDNAKNTVYFQMNCLKQEATAVYYCNRVPSWRIDYDYWGQGTLVTVSS | low polyreactivity |
| QVQLVESGGGLVQAGVSLRLSCDASGSIFDPYAMGWFRQAPGKEMELVAAITASGSSTYYADSVKGRFTISRDNAKNTVYLQMNSLKPEDTAVYYCAADRANWEYLLSWLGYDYWGQGTQVTVSS | low polyreactivity |
| QVQLVESGGGLVQAGVSLRLSFAASGSTFRGYAMGWYRQAPGKEREVVAAISSRGARTHYAHSVKGRFTISRDNAKNTVYLQMYSLKPVDTAVNYCNKRQVFVSTGEYEFDYCGQGTQVTVSS | low polyreactivity |
| QVQLVESGGGLVQAGVSLRVSCAASGRTFSRYTMGWYRQAPGKEREMVAAISKRGGSTYYADSVKGRFTISRDNAKNTVYLQRNSLKPEETAVYYCNAYGLVGLVGVIMYYWGQGTQVTVSS | high polyreactivity |
| QVQLVESGGGLVQARCSLRLSCAASGSTFLRYAMGWYRQAPGKERELVATISSSDDGTYYADSVKGRFTISRDIAKNTVYLQMNSLKPEDTAVYYCAARSWYLYYYWGQGTQVTVSS | low polyreactivity |
| QVQLVESGGGLVQARGSLRLICAASGYIFRGYAMGWYRQAPGKERELVASISRTGVSTYYADSVKGRFTISRDNAKNTVYLQMNSLKPEDTAVYYCAADYYYWYYKSGYDYWGQGTQVTVSS | high polyreactivity |
| QVQLVESGGGLVQARGSLRLSCAASGFTFDTYAMGSYRQAPGKARELVAVLSRGGSTYYADSVKGRFTISRDKAKNTVYLQMNSLKPEDPAVYFCNAKHKQGRKQFKLGAGYYWGQGTQVTVSS | high polyreactivity |

| Sequence | polyreactivity (PSR sort gate) |
| --- | --- |
| QVQLVESGGGLVQARGSLRLSCAASGFTFYSNAMGWYRQAPGKERELVAVINSDDDSTYYADSVKGRFTISRDNAKNTVYLQMNSLKPEDTAVYYCNKVWRVGKYPYSDRYYFGGGYWGQGTQVTVSS | high polyreactivity |
| QVQLVESGGGLVQARGSLRLSCAASGLTFRRNTMGWYRQAPGKERELVATITSGGSTNYADSVKGRFTISRDNAKNTVYLQMISLKPEDTAVYYCAARTTYITNWVYRHTYTYYYWGQGTQVTVSS | high polyreactivity |
| QVQLVESGGGLVQARGSLRLSCAASGLTFYYYVMGWYRQAPGKERELVAAISYSGGRTYYADSVKGRFTISRDNAKNTVYLQMNSLKPEDTAVYYCAAQSRYGGKFYYWGQGTQVTVSS | high polyreactivity |
| QVQLVESGGGLVQARGSLRLSCAASGRIFSYYAMGWYRQAPGKERELVATISKSGGSTYYADSVKGRFTISRDNAKNTVYLQMNSLKPEDTALYYCAAVGPYRWYDYWGQGTQVTVSS | high polyreactivity |
| QVQLVESGGGLVQARGSLRLSCAASGRNFADYAMGWYRQAPGKERELVAAIDWSDGSTKYADSVKGRFTISRDNAKNTVYLQINSLKPEDTAVYYCGADYWPRDGLGWWYDYWGQGTQVTVSS | low polyreactivity |
| QVQLVESGGGLVQARGSLRLSCAASGRTFVDYVMGWYRQAPGKERELVAAITYSGGSTSYADSVKGRFTISRDYAKNNFNLQMNSLKPEDTAVYYCNADGDHPYSRNDYWGQGTQVTVSS | low polyreactivity |
| QVQLVESGGGLVQARGSLRLSCAASGRTYAGYAMGWYRQAHGKERELVASITSGGRTYYADSVKGRFTISRDNAKNTVYLQMNSLKPEDTAVYYCNKVYKSYYWGGYDWGQGTQVTVSS | high polyreactivity |
| QVQLVESGGGLVQARGSLRLSCAASGSIFFRYTMGWYRPAPGKEWELVATITGSGSSTTYADSVKGRFTISRDNAKNTVYLQMNSLKPEDTAVSYCAAADIIDHSFPYDYWGQGTQVTVSS | low polyreactivity |
| QVQLVESGGGLVQARGSLRLSCAASGSIFTYNAMGWYRQAPGKERELVAAIDYSGGSTYYADSVKGRFTISRDNAKNTVYLQMKSLKPEDTAVYYCAAPWVPYPGYSLYGYDYWGQGTQVSVSS | low polyreactivity |
| QVQLVESGGGLVQARGSLRLSCAASGSIFYNNALGWYRQAPGKERELVAAISGSGDSTYYADSVKGRFTISRENAKNTVYLQMNSLKPEDTAVYYCNATPYVLWWSDMDYWGQGTQVTVSS | high polyreactivity |
| QVQLVESGGGLVQARGSLRLSCAASGSILDYYVMGWYRQAPGKERELVAAIRGGGSTYYADSVKGRFTISRDNAKNTVYLQMNSLKPEDTAVYYCAKDSQTARDFDYWGQGTQVTVSS | low polyreactivity |
| QVQLVESGGGLVQARGSLRLSCAASGSISVYNAMGWYRQAPGKERELVAAISWSGGRTSYADSVKGRFTISRDNAKNTVYLQMNSLKPEDTAVYYCAADELTVLWDEDYWGQGTQVTVSS | low polyreactivity |
| QVQLVESGGGLVQARGSLRLSCAASGSTFDYYAMGWYRQAPGKEWELVAAIDTSGDDTYYADSVKGRFTISRDNAKNTVYLQMNSLKPEDTAVYYCAADFPYDEVDYWGQGTQVTVSS | low polyreactivity |
| QVQLVESGGGLVQARGSLRLSCAASGSTFEHNAMGWYRQGPGKERELVAAISYSGGRTYYADSVKGRFTISRDNAKNTVYLQMNSLKTEDTAVYYCAAPYYSWPYYYWGLGTQVTVSS | high polyreactivity |
| QVQLVESGGGLVQARGSLRLSCAPSGRTFQLNAMGWYRQAPGKERQLFAAITVSGGGKYYADSVKGRFTISRDYAKNTVYFQMNSLKPEDTAVYYCNAKYKTRGRKSLYDYWGQGTQVTVSS | high polyreactivity |
| QVQLVESGGGLVQARGSLRLSCASSGRIFDNYAMGWYRQAPGKERELVAAITYIDSGTYYADSVKGRFTISRDNAKNTVYLQMNSLKPEDTAVFYCAVGLNSDSKRKTQKYGYWGQGTQVTVSS | low polyreactivity |
| QVQLVESGGGLVQARGSLRLSCASSGSIFTDNGMGWYRQPPGKESDLVAAISWRGGTYYADSVKGRFTISRDNAKNTVYLQMNSLKPEDSAVYYSAADVLRISTRLFRGPGFDSWGQGTQVTVSS | low polyreactivity |
| QVQLVESGGGLVQARGSLRLSSAASGSTFSYYAMGGYRQEHGTETQLVATISKRGGSTYYADSVKGRFTISRDNAKNTVYLQMNSLKPEDTAVYYCAAEFLVRYGYDYWGQGTQVTVSS | high polyreactivity |
| QVQLVESGGGLVQAVASIRLSCAASGITIYLYAKGWSRQAPGKARELVATITSRSGSTYYADSVKGRFTISRDNAKNTVYLQMNSLKPEDTAVYYCAAKYPRYLYGYWGQGTQVTVSS | high polyreactivity |
| QVQLVESGGGLVQAVCSLRLSCAASGIIFVYYVMGWYRQAPGKERELVASIDGSGGSTNYADSVKGRFTISRDNAKNTVYLQMNSLKPEDTAVYYCAASGRYDYDYWGQGTQVTVSS | low polyreactivity |
| QVQLVESGGGLVQAVGSHRLSCAASGRIFGNNVMGWYRQEPGKERELVAANTFSGTSTYYADSVKGRFTISRDNAKNTVYLQMNSLKPEDTAVYYCAKYRYADYYSPGYDYWGQGTQVTVSS | low polyreactivity |

— the nanobody polyreactivity screen of Harvey et al. (2022)
